Drawing on publication PMC2658612 (Cell host & microbe, 2008), this text covers Kd for 1 molecule.

This assay addresses T1, SifA (1–330), as in the calorimetry and the crystal (S. typhimurium, UniProt Q56061 1-330).
T1 sequence: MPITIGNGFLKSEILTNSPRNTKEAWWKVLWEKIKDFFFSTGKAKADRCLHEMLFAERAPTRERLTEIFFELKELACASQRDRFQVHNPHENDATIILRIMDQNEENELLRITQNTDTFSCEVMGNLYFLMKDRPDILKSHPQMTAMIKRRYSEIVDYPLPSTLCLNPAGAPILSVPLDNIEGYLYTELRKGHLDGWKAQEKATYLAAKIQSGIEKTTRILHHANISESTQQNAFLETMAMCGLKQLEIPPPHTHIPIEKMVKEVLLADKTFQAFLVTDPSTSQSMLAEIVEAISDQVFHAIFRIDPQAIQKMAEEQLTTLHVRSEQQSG
Put plainly: ITC. In general terms: ITC needs no label: the signal is the heat of the interaction.

B1: PH domain (PHD) of SKIP (774–883), as in the calorimetry and the crystal (domain or fragment, UniProt Q8IWE5 774-883, looked up)
chain: KEGMLHYKAGTSYLGKEHWKTCFVVLSNGILYQYPDRTDVIPLLSVNMGGEQCGGCRRANTTDRPHAFQVILSDRPCLELSAESEAEMAEWMQHLCQAVSKGVIPQGVAP
Turning to B1, the affinity, expressed as Kd, was 2580 nM.
